Experimental data published in the DeepSol protein solubility set.

Experiment: soluble on expression in E. coli; label from the status in PepcDB or PDB records

| Sequence | soluble on expression in E. coli |
| --- | --- |
| MSLEFLNSLSYGISSHEVNNEFKQIFRELLTNHIIKEHKNKYYLNNGFAFGVLDISSKGTGFLQCFDESFKKDLLIENKNLKGANYKDIVAVKLLPLKKKRPSAKVILVLKRANETSLMITKRYGEAVLGMNIKTGLSTALKASQKSLKALPLGTILKIENENNNIIEVLGHIDDESVDEKISLALFNKNNEFSDACIKEALANGDSVDASMYENRMDLRALPFCTIDPIHAKDFDDAIYFDTQKREIYVAIADVSEYVYAYSAIDKEARNRGFSIYFPHIAIPMLPRPLSENICSLKPHLDRLAYCFKITLNHENKVIKEELFEGIINSKRRFNYDEVDEILIQKPDLKELSWLYELFEITKNLRKMRLKNAFEFRTEELRMNLDENLSLKSTVFEKDTPSHNLIEDCMLLANKAAAKLIDIGVFRNHLSADVRKIDKLLNELRELGIDVNFKPNLPELIRDIQALADELNLRAEVDKLIIKAQKKAEYSSVNAGHFGLGFDKYSHFTSPIRRYSDLILHRLLKAKQKNDEKLFNYLLLNIESTCENLSTLEREADKVAFDFMDRKFARWAAKNIGKKFKALVVQNDGVCIAKLDDEIKGADIILYDTRVNLLENVEVQIMEADIVMAKIYAKITQRLIKEENVEGHHHHHH | not soluble |
| KEIIVNENDILLLWDGSNAGEIFLGKKGILSSTMVKLEQKNKIMDDLYLFYSLKLKESFLKSQTKGTGIPHVDKKIFENIKIPLPPLEEQKQIAKILSDFDN | not soluble |
| MLSKKRSMSFAKRTLLSVSLSLVSGLSFAKMYELPEDGSRLIGRLENHVVQQGETMANIAKHYDVGMLALMAANKGVDPFLPQEGRVLTIPSQLILPEVPHQGIVINLAELRLYYFPEGEDVVHVFPVGIGRIGRDTPVMTTSISQKRPNPTWTPPASIRAEYRAKGVDLPAVVPAGPDNPLGLFALRLAYGNGEYLIHGTNKDFGIGMRVSAGCIRMDPSDIEWLFDKVRRGEKVNIINQPVKVSLEPDRSVFVEAHEPLTRSNGEKDHLQVPKELGWWLNEFGLTNVKAKAVIAAQNGVPVEITAP | not soluble |
| MKKPVHDMRQHIIDVARSLMTNKGYTAVGLAEVLITAGVPKGSFYYYFKSKEEFGQALLEEYFSEYLGRVDALMARPGTGAERLLAYFMYWSETQGTDLPEGKCLVVKLGAEVCDLSEDMRCVLEVGTAKIIQRISACVEMGVSDGSIHPEGDHQGFAESLYQLWLGASLLVKVNKSTESFDKALNMTKRLLK | not soluble |
| MSLDGGTLGATNRFLTRDGSPWIPIAGEMHYSRIAAERWDTELAKMAAAGIDVVSTYVFWNHHEEREGEWDFSGNRNVRRFVELCARHGLHVIVRLGPFCHGEVRNGGLPDWLYGKSYEVRSLDAGFLDAVRGLYAHIAQQLRGLYFKDGGPIIAAQVDNEYMASSAPWEMTTGISREWVPSGHDGAGYLERLRDIAIEEGIDPPMFTCTGWQSPVPDDMLPLWGGYAYRPWLFYDGVGAEGMTEHPATDEYRYRRLHGSSTSDGFDPPYDPDSRPYACCEMGGGMFNSYDYRFVLPKRSVDAMANIKLGSGCDFLGYYMFHGGTNPKGAAGFLNEGQTPKRSYDFQAPLGKFGQVRESYRRLRTLHEFVKAFGPELAGMPVSLQDGQDRIDPSDSETLRYAVRSDGERGFVSIDNFQDHARVPSRHGEQIDVTTGTGERIRFTGIGLAEGENCILPFNMDLDGVRLVRANLQPVTVLRVPGRPFRTFVFLKPDGMDELTFHFEGDIQDVTVGKADFERFMVRDAAEIVCVTRALAGRMTVLDGGLAFVDDDNALLYEDGDGWTLESPRAENGIAAYPEGLLGSPRPVEPVSVYARMRRLHADRYEIALPAGMGRLFRDQRQVADVMLNIAYQGDIGWLFCGDVLIADNFCNGETWQVGLRDYADAIDAAGGKLTLVVTPLRRGVRVKVTSSMAARLEQSDACVADVTDVYATPVYHMPVGEGHHHHHH | not soluble |
| MPFSISGRKGSEMMAKLDELKQKLTAKQIQAAYLLVENELMESNNEEKRTQDEMANELGINRTTLWEWRTKNQDFIAFKSEVADSFLAEKREQVYSKLMQLILGPQPSVKAMQLYMQRFGLLTDKKVIEGDLGNATRTNAEIEEQLQKLKKLTGE | soluble |
| QGHVGDHDSHEVMQRLDALLPTLRERAQETEDLRRIPDDSMKALQETGFFRLLQPEQWGGYQADPVLFYSAVRKIASACGSTGWVSSIIGVHNWHLALFSQQAQEDVWGNDTDVRISSSYAPMGAGQVVDGGYTVNGAWAWSSGCDHASWAVLGGPVIKDGRPVDFVSFLIPREDYRIDDVWNVVGLRGTGSNTVVVEDVFVPTHRVLSFKAMSNLTAPGLERNTAPVYKMPWGTIHPTTISAPIVGMAYGAYDAHVEHQGKRVRAAFAGEKAKDDPFAKVRIAEASSDIDAAWRQLSGNVADEYALLVAGEEVPFELRLRARRDQVRATGRAISSIDKLFESSGATALANGTPLQRFWRDAHAGRVHAANDPERAYVMYGTGEFGLPITDTMV | soluble |
